Measurements taken from patent US20180371086A1.

Biological target: human CD3, on primary human T cells (human) (UniProt P07766)
Assay: cell-based or functional assay

Chain of human CD3, on primary human T cells (human) (P07766 23-207 limits assumed): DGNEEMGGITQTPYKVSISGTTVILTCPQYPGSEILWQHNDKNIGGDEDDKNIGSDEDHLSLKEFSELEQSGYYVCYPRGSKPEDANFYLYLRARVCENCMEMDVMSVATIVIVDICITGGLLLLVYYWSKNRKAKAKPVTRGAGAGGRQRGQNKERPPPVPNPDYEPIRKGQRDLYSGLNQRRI

Q: For PGT-121.60 (antibody), which CD25 EC50; CD4 T cells; donor D1597; 7552-infected CEM cells is on record?
A: > 100 µg/mL

Q: And the CD25 EC50; CD4 T cells; donor D1597; THRO-infected CEM cells?
A: > 100 µg/mL

Q: What about the CD25 EC50; CD4 T cells; donor D1597; uninfected CEM cells of the same substance?
A: > 100 µg/mL

Q: And the CD25 EC50; CD4 T cells; donor D2256; 7552-infected CEM cells?
A: > 100 µg/mL

Q: What about the CD25 EC50; CD4 T cells; donor D2256; THRO-infected CEM cells of the same substance?
A: > 100 µg/mL

Q: And the CD25 EC50; CD4 T cells; donor D2256; uninfected CEM cells?
A: > 100 µg/mL

Q: And the CD25 EC50; CD4 T cells; donor D4246; 7552-infected CEM cells?
A: > 100 µg/mL

Q: And the CD25 EC50; CD4 T cells; donor D4246; THRO-infected CEM cells?
A: > 100 µg/mL

Q: And the CD25 EC50; CD4 T cells; donor D4246; uninfected CEM cells?
A: > 100 µg/mL

Q: And the CD25 EC50; CD4 T cells; donor D4279; 7552-infected CEM cells?
A: > 100 µg/mL

Q: And the CD25 EC50; CD4 T cells; donor D4279; THRO-infected CEM cells?
A: > 100 µg/mL

Q: And the CD25 EC50; CD4 T cells; donor D4279; uninfected CEM cells?
A: > 100 µg/mL

Q: And the CD25 EC50; CD8 T cells; donor D1597; 7552-infected CEM cells?
A: > 100 µg/mL

Q: And the CD25 EC50; CD8 T cells; donor D1597; THRO-infected CEM cells?
A: > 100 µg/mL

Q: What about the CD25 EC50; CD8 T cells; donor D1597; uninfected CEM cells of the same substance?
A: > 100 µg/mL

Q: What about the CD25 EC50; CD8 T cells; donor D2256; 7552-infected CEM cells of the same substance?
A: > 100 µg/mL

Q: What about the CD25 EC50; CD8 T cells; donor D2256; THRO-infected CEM cells of the same substance?
A: > 100 µg/mL

Q: And the CD25 EC50; CD8 T cells; donor D2256; uninfected CEM cells?
A: > 100 µg/mL

Q: And the CD25 EC50; CD8 T cells; donor D4246; 7552-infected CEM cells?
A: > 100 µg/mL

Q: And the CD25 EC50; CD8 T cells; donor D4246; THRO-infected CEM cells?
A: > 100 µg/mL

Q: What about the CD25 EC50; CD8 T cells; donor D4246; uninfected CEM cells of the same substance?
A: > 100 µg/mL

Q: What about the CD25 EC50; CD8 T cells; donor D4279; 7552-infected CEM cells of the same substance?
A: > 100 µg/mL

Q: What about the CD25 EC50; CD8 T cells; donor D4279; THRO-infected CEM cells of the same substance?
A: > 100 µg/mL

Q: What about the CD25 EC50; CD8 T cells; donor D4279; uninfected CEM cells of the same substance?
A: > 100 µg/mL

Q: What about the CD25 Δ Emax; CD4 T cells; donor D1597; 7552-infected CEM cells of the same substance?
A: 0%

Q: And the CD25 Δ Emax; CD4 T cells; donor D1597; THRO-infected CEM cells?
A: -2%

Q: And the CD25 Δ Emax; CD4 T cells; donor D1597; uninfected CEM cells?
A: 3%

Q: What about the CD25 Δ Emax; CD4 T cells; donor D2256; 7552-infected CEM cells of the same substance?
A: 2%

Q: And the CD25 Δ Emax; CD4 T cells; donor D2256; THRO-infected CEM cells?
A: -1%

Q: And the CD25 Δ Emax; CD4 T cells; donor D2256; uninfected CEM cells?
A: -1%

Q: And the CD25 Δ Emax; CD4 T cells; donor D4246; 7552-infected CEM cells?
A: -2%

Q: What about the CD25 Δ Emax; CD4 T cells; donor D4246; THRO-infected CEM cells of the same substance?
A: -2%

Q: What about the CD25 Δ Emax; CD4 T cells; donor D4246; uninfected CEM cells of the same substance?
A: 0%

Q: And the CD25 Δ Emax; CD4 T cells; donor D4279; 7552-infected CEM cells?
A: -1%

Q: And the CD25 Δ Emax; CD4 T cells; donor D4279; THRO-infected CEM cells?
A: -2%

Q: And the CD25 Δ Emax; CD4 T cells; donor D4279; uninfected CEM cells?
A: 0%

Q: What about the CD25 Δ Emax; CD8 T cells; donor D1597; 7552-infected CEM cells of the same substance?
A: -1%

Q: What about the CD25 Δ Emax; CD8 T cells; donor D1597; THRO-infected CEM cells of the same substance?
A: 0%

Q: And the CD25 Δ Emax; CD8 T cells; donor D1597; uninfected CEM cells?
A: 0%

Q: And the CD25 Δ Emax; CD8 T cells; donor D2256; 7552-infected CEM cells?
A: 0%

Q: What about the CD25 Δ Emax; CD8 T cells; donor D2256; THRO-infected CEM cells of the same substance?
A: -1%

Q: And the CD25 Δ Emax; CD8 T cells; donor D2256; uninfected CEM cells?
A: 0%

Q: And the CD25 Δ Emax; CD8 T cells; donor D4246; 7552-infected CEM cells?
A: 1%

Q: And the CD25 Δ Emax; CD8 T cells; donor D4246; THRO-infected CEM cells?
A: 0%

Q: What about the CD25 Δ Emax; CD8 T cells; donor D4246; uninfected CEM cells of the same substance?
A: 0%

Q: What about the CD25 Δ Emax; CD8 T cells; donor D4279; 7552-infected CEM cells of the same substance?
A: 0%

Q: What about the CD25 Δ Emax; CD8 T cells; donor D4279; THRO-infected CEM cells of the same substance?
A: 1%

Q: And the CD25 Δ Emax; CD8 T cells; donor D4279; uninfected CEM cells?
A: 0%

Q: And the CD69 EC50; CD4 T cells; donor D1597; 7552-infected CEM cells?
A: > 100 µg/mL

Q: What about the CD69 EC50; CD4 T cells; donor D1597; THRO-infected CEM cells of the same substance?
A: > 100 µg/mL

Q: What about the CD69 EC50; CD4 T cells; donor D1597; uninfected CEM cells of the same substance?
A: > 100 µg/mL

Q: And the CD69 EC50; CD4 T cells; donor D2256; 7552-infected CEM cells?
A: > 100 µg/mL

Q: What about the CD69 EC50; CD4 T cells; donor D2256; THRO-infected CEM cells of the same substance?
A: > 100 µg/mL

Q: What about the CD69 EC50; CD4 T cells; donor D2256; uninfected CEM cells of the same substance?
A: > 100 µg/mL

Q: And the CD69 EC50; CD4 T cells; donor D4246; 7552-infected CEM cells?
A: > 100 µg/mL

Q: What about the CD69 EC50; CD4 T cells; donor D4246; THRO-infected CEM cells of the same substance?
A: > 100 µg/mL

Q: What about the CD69 EC50; CD4 T cells; donor D4246; uninfected CEM cells of the same substance?
A: > 100 µg/mL

Q: And the CD69 EC50; CD4 T cells; donor D4279; 7552-infected CEM cells?
A: > 100 µg/mL

Q: And the CD69 EC50; CD4 T cells; donor D4279; THRO-infected CEM cells?
A: > 100 µg/mL

Q: And the CD69 EC50; CD4 T cells; donor D4279; uninfected CEM cells?
A: > 100 µg/mL

Q: And the CD69 EC50; CD8 T cells; donor D1597; 7552-infected CEM cells?
A: > 100 µg/mL

Q: What about the CD69 EC50; CD8 T cells; donor D1597; THRO-infected CEM cells of the same substance?
A: > 100 µg/mL

Q: And the CD69 EC50; CD8 T cells; donor D1597; uninfected CEM cells?
A: > 100 µg/mL

Q: And the CD69 EC50; CD8 T cells; donor D2256; 7552-infected CEM cells?
A: > 100 µg/mL

Q: What about the CD69 EC50; CD8 T cells; donor D2256; THRO-infected CEM cells of the same substance?
A: > 100 µg/mL

Q: What about the CD69 EC50; CD8 T cells; donor D2256; uninfected CEM cells of the same substance?
A: > 100 µg/mL

Q: And the CD69 EC50; CD8 T cells; donor D4246; 7552-infected CEM cells?
A: > 100 µg/mL

Q: What about the CD69 EC50; CD8 T cells; donor D4246; THRO-infected CEM cells of the same substance?
A: > 100 µg/mL

Q: What about the CD69 EC50; CD8 T cells; donor D4246; uninfected CEM cells of the same substance?
A: > 100 µg/mL

Q: What about the CD69 EC50; CD8 T cells; donor D4279; 7552-infected CEM cells of the same substance?
A: > 100 µg/mL

Q: What about the CD69 EC50; CD8 T cells; donor D4279; THRO-infected CEM cells of the same substance?
A: > 100 µg/mL

Q: And the CD69 EC50; CD8 T cells; donor D4279; uninfected CEM cells?
A: > 100 µg/mL

Q: What about the CD69 Δ Emax; CD4 T cells; donor D1597; 7552-infected CEM cells of the same substance?
A: 0%

Q: What about the CD69 Δ Emax; CD4 T cells; donor D1597; THRO-infected CEM cells of the same substance?
A: 0%

Q: And the CD69 Δ Emax; CD4 T cells; donor D1597; uninfected CEM cells?
A: 1%

Q: And the CD69 Δ Emax; CD4 T cells; donor D2256; 7552-infected CEM cells?
A: 0%

Q: And the CD69 Δ Emax; CD4 T cells; donor D2256; THRO-infected CEM cells?
A: 0%

Q: What about the CD69 Δ Emax; CD4 T cells; donor D2256; uninfected CEM cells of the same substance?
A: 0%

Q: What about the CD69 Δ Emax; CD4 T cells; donor D4246; 7552-infected CEM cells of the same substance?
A: 3%

Q: And the CD69 Δ Emax; CD4 T cells; donor D4246; THRO-infected CEM cells?
A: 1%

Q: And the CD69 Δ Emax; CD4 T cells; donor D4246; uninfected CEM cells?
A: -1%

Q: And the CD69 Δ Emax; CD4 T cells; donor D4279; 7552-infected CEM cells?
A: 3%

Q: And the CD69 Δ Emax; CD4 T cells; donor D4279; THRO-infected CEM cells?
A: 0%

Q: And the CD69 Δ Emax; CD4 T cells; donor D4279; uninfected CEM cells?
A: 0%

Q: What about the CD69 Δ Emax; CD8 T cells; donor D1597; 7552-infected CEM cells of the same substance?
A: 0%

Q: And the CD69 Δ Emax; CD8 T cells; donor D1597; THRO-infected CEM cells?
A: 0%

Q: What about the CD69 Δ Emax; CD8 T cells; donor D1597; uninfected CEM cells of the same substance?
A: 0%

Q: And the CD69 Δ Emax; CD8 T cells; donor D2256; 7552-infected CEM cells?
A: 0%

Q: What about the CD69 Δ Emax; CD8 T cells; donor D2256; THRO-infected CEM cells of the same substance?
A: 0%

Q: And the CD69 Δ Emax; CD8 T cells; donor D2256; uninfected CEM cells?
A: 0%

Q: And the CD69 Δ Emax; CD8 T cells; donor D4246; 7552-infected CEM cells?
A: 0%

Q: And the CD69 Δ Emax; CD8 T cells; donor D4246; THRO-infected CEM cells?
A: 0%

Q: What about the CD69 Δ Emax; CD8 T cells; donor D4246; uninfected CEM cells of the same substance?
A: 0%

Q: And the CD69 Δ Emax; CD8 T cells; donor D4279; 7552-infected CEM cells?
A: -4%

Q: What about the CD69 Δ Emax; CD8 T cells; donor D4279; THRO-infected CEM cells of the same substance?
A: 0%

Q: And the CD69 Δ Emax; CD8 T cells; donor D4279; uninfected CEM cells?
A: 0%
